# Measurements from publication PMC4912689, “The Extracellular Surface of the GLP-1 Receptor Is a Molecular Trigger for Biased Agonism” (Cell, 2016).
# B1: unnamed (parent)
# chain 1: HSQGTFTSDYSKYLDSRRAQDFVQWLMNTKRNRNNIA
# chain 2: RPQGATVSLWETVQKWREYRRQCQRSLTEDPPPATDLFCNRTFDEYACWPDGEPGSFVNVSCPWYLPWASSVPQGHVYRFCTAEGLWLQKDNSSLPWRDLSECEESKRGERSSPEEQLLFLYIIYTVGYALSFSALVIASAILLGFRHLHCTRNYIHLNLFASFILRALSVFIKDAALKWMYSTAAQQHQWDGLLSYQDSLSCRLVFLLMQYCVAANYYWLLVEGVYLYTLLAFSVLSEQWIFRLYVSIGWGVPLLFVVPWGIVKYLYEDEGCWTRNSNMNYWLIIRLPILFAIGVNFLIFVRVICIVVSKLKANLMCKTDIKCRLAKSTLTLIPLLGTHEVIFAFVMDEHARGTLRFIKLFTELSFTSFQGLMVAILYCFVNNEVQLEFRKSWERWRLEHLHIQRDSSMKPLKCPTSSLSSGATAGSSMYTATCQASCS
# Variants of: B1
# Test: radioligand inhibition binding (competition with 125I-exendin-4(9-39))
# Settings: read off a plot
row,Variant,log10 ratio
1,chain 2 RPQGATVSLWETVQKWREYRRQCQRSLTEDPPPATDLFCNRTFDEYACWPDGEPGSFVNVSCPWYLPWASSVPQGHVYRFCTAEGLWLQKDNSSLPWRDLSECEESKRGERSSPEEQLLFLYIIYTVGYALSFSALVIASAILLGFRHLHCTRNYIHLNLFASFILRALSVFIKDAALKWMYSTAAQQHQWDGLLSYQDSLSCRLVFLLMQYCVAANYYWLLVEGVYLYTLLAFSVLSEQWIFRLYVSIGWGVPLLFVVPWGIVKYLYEDEGAWTRNSNMNYWLIIRLPILFAIGVNFLIFVRVICIVVSKLKANLMCKTDIKCRLAKSTLTLIPLLGTHEVIFAFVMDEHARGTLRFIKLFTELSFTSFQGLMVAILYCFVNNEVQLEFRKSWERWRLEHLHIQRDSSMKPLKCPTSSLSSGATAGSSMYTATCQASCS [chain 2 C273A],0.4 ΔpKi
2,chain 2 RPQGATVSLWETVQKWREYRRQCQRSLTEDPPPATDLFCNRTFDEYACWPDGEPGSFVNVSCPWYLPWASSVPQGHVYRFCTAEGLWLQKDNSSLPWRDLSECEESKRGERSSPEEQLLFLYIIYTVGYALSFSALVIASAILLGFRHLHCTRNYIHLNLFASFILRALSVFIKDAALKWMYSTAAQQHQWAGLLSYQDSLSCRLVFLLMQYCVAANYYWLLVEGVYLYTLLAFSVLSEQWIFRLYVSIGWGVPLLFVVPWGIVKYLYEDEGCWTRNSNMNYWLIIRLPILFAIGVNFLIFVRVICIVVSKLKANLMCKTDIKCRLAKSTLTLIPLLGTHEVIFAFVMDEHARGTLRFIKLFTELSFTSFQGLMVAILYCFVNNEVQLEFRKSWERWRLEHLHIQRDSSMKPLKCPTSSLSSGATAGSSMYTATCQASCS [chain 2 D192A],-0.2 ΔpKi
3,chain 2 RPQGATVSLWETVQKWREYRRQCQRSLTEDPPPATDLFCNRTFDEYACWPDGEPGSFVNVSCPWYLPWASSVPQGHVYRFCTAEGLWLQKDNSSLPWRDLSECEESKRGERSSPEEQLLFLYIIYTVGYALSFSALVIASAILLGFRHLHCTRNYIHLNLFASFILRALSVFIKDAALKWMYSTAAQQHQWDGLLSYQASLSCRLVFLLMQYCVAANYYWLLVEGVYLYTLLAFSVLSEQWIFRLYVSIGWGVPLLFVVPWGIVKYLYEDEGCWTRNSNMNYWLIIRLPILFAIGVNFLIFVRVICIVVSKLKANLMCKTDIKCRLAKSTLTLIPLLGTHEVIFAFVMDEHARGTLRFIKLFTELSFTSFQGLMVAILYCFVNNEVQLEFRKSWERWRLEHLHIQRDSSMKPLKCPTSSLSSGATAGSSMYTATCQASCS [chain 2 D199A],-0.25 ΔpKi
4,chain 2 RPQGATVSLWETVQKWREYRRQCQRSLTEDPPPATDLFCNRTFDEYACWPDGEPGSFVNVSCPWYLPWASSVPQGHVYRFCTAEGLWLQKDNSSLPWRDLSECEESKRGERSSPEEQLLFLYIIYTVGYALSFSALVIASAILLGFRHLHCTRNYIHLNLFASFILRALSVFIKDAALKWMYSTAAQQHQWDGLLSYQDSLSCRLVFLLMQYCVAANYYWLLVEGVYLYTLLAFSVLSEQWIFRLYVSIGWGVPLLFVVPWGIVKYLYEAEGCWTRNSNMNYWLIIRLPILFAIGVNFLIFVRVICIVVSKLKANLMCKTDIKCRLAKSTLTLIPLLGTHEVIFAFVMDEHARGTLRFIKLFTELSFTSFQGLMVAILYCFVNNEVQLEFRKSWERWRLEHLHIQRDSSMKPLKCPTSSLSSGATAGSSMYTATCQASCS [chain 2 D270A],-1 ΔpKi
5,chain 2 RPQGATVSLWETVQKWREYRRQCQRSLTEDPPPATDLFCNRTFDEYACWPDGEPGSFVNVSCPWYLPWASSVPQGHVYRFCTAEGLWLQKDNSSLPWRDLSECEESKRGERSSPEEQLLFLYIIYTVGYALSFSALVIASAILLGFRHLHCTRNYIHLNLFASFILRALSVFIKDAALKWMYSTAAQQHQWDGLLSYQDSLSCRLVFLLMQYCVAANYYWLLVEGVYLYTLLAFSVLSEQWIFRLYVSIGWGVPLLFVVPWGIVKYLYEDEGCWTRNSNMNYWLIIRLPILFAIGVNFLIFVRVICIVVSKLKANLMCKTDIKCRLAKSTLTLIPLLGTHEVIFAFVMAEHARGTLRFIKLFTELSFTSFQGLMVAILYCFVNNEVQLEFRKSWERWRLEHLHIQRDSSMKPLKCPTSSLSSGATAGSSMYTATCQASCS [chain 2 D349A],-0.3 ΔpKi
6,chain 2 RPQGATVSLWETVQKWREYRRQCQRSLTEDPPPATDLFCNRTFDEYACWPDGEPGSFVNVSCPWYLPWASSVPQGHVYRFCTAEGLWLQKDNSSLPWRDLSECEESKRGERSSPEEQLLFLYIIYTVGYALSFSALVIASAILLGFRHLHCTRNYIHLNLFASFILRALSVFIKDAALKWMYSTAAQQHQWDGLLSYQDSLSCRLVFLLMQYCVAANYYWLLVEGVYLYTLLAFSVLSEQWIFRLYVSIGWGVPLLFVVPWGIVKYLYADEGCWTRNSNMNYWLIIRLPILFAIGVNFLIFVRVICIVVSKLKANLMCKTDIKCRLAKSTLTLIPLLGTHEVIFAFVMDEHARGTLRFIKLFTELSFTSFQGLMVAILYCFVNNEVQLEFRKSWERWRLEHLHIQRDSSMKPLKCPTSSLSSGATAGSSMYTATCQASCS [chain 2 E269A],-1.3 ΔpKi
7,chain 2 RPQGATVSLWETVQKWREYRRQCQRSLTEDPPPATDLFCNRTFDEYACWPDGEPGSFVNVSCPWYLPWASSVPQGHVYRFCTAEGLWLQKDNSSLPWRDLSECEESKRGERSSPEEQLLFLYIIYTVGYALSFSALVIASAILLGFRHLHCTRNYIHLNLFASFILRALSVFIKDAALKWMYSTAAQQHQWDGLLSYQDSLSCRLVFLLMQYCVAANYYWLLVEGVYLYTLLAFSVLSEQWIFRLYVSIGWGVPLLFVVPWGIVKYLYEDAGCWTRNSNMNYWLIIRLPILFAIGVNFLIFVRVICIVVSKLKANLMCKTDIKCRLAKSTLTLIPLLGTHEVIFAFVMDEHARGTLRFIKLFTELSFTSFQGLMVAILYCFVNNEVQLEFRKSWERWRLEHLHIQRDSSMKPLKCPTSSLSSGATAGSSMYTATCQASCS [chain 2 E271A],-0.15 ΔpKi
8,chain 2 RPQGATVSLWETVQKWREYRRQCQRSLTEDPPPATDLFCNRTFDEYACWPDGEPGSFVNVSCPWYLPWASSVPQGHVYRFCTAEGLWLQKDNSSLPWRDLSECEESKRGERSSPEEQLLFLYIIYTVGYALSFSALVIASAILLGFRHLHCTRNYIHLNLFASFILRALSVFIKDAALKWMYSTAAQQHQWDGLLSYQDSLSCRLVFLLMQYCVAANYYWLLVEGVYLYTLLAFSVLSEQWIFRLYVSIGWGVPLLFVVPWGIVKYLYEDEGCWTRNSNMNYWLIIRLPILFAIGVNFLIFVRVICIVVSKLKANLMCKTDIKCRLAKSTLTLIPLLGTHEVIFAFVMDAHARGTLRFIKLFTELSFTSFQGLMVAILYCFVNNEVQLEFRKSWERWRLEHLHIQRDSSMKPLKCPTSSLSSGATAGSSMYTATCQASCS [chain 2 E350A],-0.85 ΔpKi
9,chain 2 RPQGATVSLWETVQKWREYRRQCQRSLTEDPPPATDLFCNRTFDEYACWPDGEPGSFVNVSCPWYLPWASSVPQGHVYRFCTAEGLWLQKDNSSLPWRDLSECEESKRGERSSPEEQLLFLYIIYTVGYALSFSALVIASAILLGFRHLHCTRNYIHLNLFASFILRALSVFIKDAALKWMYSTAAQQHQWDGLLSYQDSLSCRLVFLLMQYCVAANYYWLLVEGVYLYTLLAFSVLSEQWIFRLYVSIGWGVPLLFVVPWGIVKYLYEDEGCWTRNSNMNYWLIIRLPILFAIGVNFLIFVRVICIVVSKLKANLMCKTDIKCRLAKSTLTLIPLLGTHEVIFAFVMDEHARGTLRFIKLFTALSFTSFQGLMVAILYCFVNNEVQLEFRKSWERWRLEHLHIQRDSSMKPLKCPTSSLSSGATAGSSMYTATCQASCS [chain 2 E364A],-0.5 ΔpKi
10,chain 2 RPQGATVSLWETVQKWREYRRQCQRSLTEDPPPATDLFCNRTFDEYACWPDGEPGSFVNVSCPWYLPWASSVPQGHVYRFCTAEGLWLQKDNSSLPWRDLSECEESKRGERSSPEEQLLFLYIIYTVGYALSFSALVIASAILLGFRHLHCTRNYIHLNLFASFILRALSVFIKDAALKWMYSTAAQQHQWDGLLSYQDSLSCRLVFLLMQYCVAANYYWLLVEGVYLYTLLAFSVLSEQWIFRLYVSIGWGVPLLFVVPWGIVKYLYEDEGCWTRNSNMNYWLIIRLPILFAIGVNFLIFVRVICIVVSKLKANLMCKTDIKCRLAKSTLTLIPLLGTHEVIFAFVMDEHARGTLRAIKLFTELSFTSFQGLMVAILYCFVNNEVQLEFRKSWERWRLEHLHIQRDSSMKPLKCPTSSLSSGATAGSSMYTATCQASCS [chain 2 F358A],-1.1 ΔpKi
11,chain 2 RPQGATVSLWETVQKWREYRRQCQRSLTEDPPPATDLFCNRTFDEYACWPDGEPGSFVNVSCPWYLPWASSVPQGHVYRFCTAEGLWLQKDNSSLPWRDLSECEESKRGERSSPEEQLLFLYIIYTVGYALSFSALVIASAILLGFRHLHCTRNYIHLNLFASFILRALSVFIKDAALKWMYSTAAQQHQWDGLLSYQDSLSCRLVFLLMQYCVAANYYWLLVEGVYLYTLLAFSVLSEQWIFRLYVSIGWGVPLLFVVPWGIVKYLYEDEGCWTRNSNMNYWLIIRLPILFAIGVNFLIFVRVICIVVSKLKANLMCKTDIKCRLAKSTLTLIPLLGTHEVIFAFVMDEHARGTLRFIKLATELSFTSFQGLMVAILYCFVNNEVQLEFRKSWERWRLEHLHIQRDSSMKPLKCPTSSLSSGATAGSSMYTATCQASCS [chain 2 F362A],-0.15 ΔpKi
12,chain 2 RPQGATVSLWETVQKWREYRRQCQRSLTEDPPPATDLFCNRTFDEYACWPDGEPGSFVNVSCPWYLPWASSVPQGHVYRFCTAEGLWLQKDNSSLPWRDLSECEESKRGERSSPEEQLLFLYIIYTVGYALSFSALVIASAILLGFRHLHCTRNYIHLNLFASFILRALSVFIKDAALKWMYSTAAQQHQWDGLLSYQDSLSCRLVFLLMQYCVAANYYWLLVEGVYLYTLLAFSVLSEQWIFRLYVSIGWGVPLLFVVPWAIVKYLYEDEGCWTRNSNMNYWLIIRLPILFAIGVNFLIFVRVICIVVSKLKANLMCKTDIKCRLAKSTLTLIPLLGTHEVIFAFVMDEHARGTLRFIKLFTELSFTSFQGLMVAILYCFVNNEVQLEFRKSWERWRLEHLHIQRDSSMKPLKCPTSSLSSGATAGSSMYTATCQASCS [chain 2 G262A],0.1 ΔpKi
13,chain 2 RPQGATVSLWETVQKWREYRRQCQRSLTEDPPPATDLFCNRTFDEYACWPDGEPGSFVNVSCPWYLPWASSVPQGHVYRFCTAEGLWLQKDNSSLPWRDLSECEESKRGERSSPEEQLLFLYIIYTVGYALSFSALVIASAILLGFRHLHCTRNYIHLNLFASFILRALSVFIKDAALKWMYSTAAQQHQWDGLLSYQDSLSCRLVFLLMQYCVAANYYWLLVEGVYLYTLLAFSVLSEQWIFRLYVSIGWGVPLLFVVPWGIVKYLYEDEACWTRNSNMNYWLIIRLPILFAIGVNFLIFVRVICIVVSKLKANLMCKTDIKCRLAKSTLTLIPLLGTHEVIFAFVMDEHARGTLRFIKLFTELSFTSFQGLMVAILYCFVNNEVQLEFRKSWERWRLEHLHIQRDSSMKPLKCPTSSLSSGATAGSSMYTATCQASCS [chain 2 G272A],0.15 ΔpKi
14,chain 2 RPQGATVSLWETVQKWREYRRQCQRSLTEDPPPATDLFCNRTFDEYACWPDGEPGSFVNVSCPWYLPWASSVPQGHVYRFCTAEGLWLQKDNSSLPWRDLSECEESKRGERSSPEEQLLFLYIIYTVGYALSFSALVIASAILLGFRHLHCTRNYIHLNLFASFILRALSVFIKDAALKWMYSTAAQQHQWDGLLSYQDSLSCRLVFLLMQYCVAANYYWLLVEGVYLYTLLAFSVLSEQWIFRLYVSIGWGVPLLFVVPWGIVKYLYEDEGCWTRNSNMNYWLIIRLPILFAIGVNFLIFVRVICIVVSKLKANLMCKTDIKCRLAKSTLTLIPLLGTHEVIFAFVMDEHARATLRFIKLFTELSFTSFQGLMVAILYCFVNNEVQLEFRKSWERWRLEHLHIQRDSSMKPLKCPTSSLSSGATAGSSMYTATCQASCS [chain 2 G354A],-0.45 ΔpKi
